Experimental data: patent US5951979

Molecular target: tyrosine phosphorylated ^32 P-labelled RCM-lysozyme (Gallus gallus (Chicken)) (UniProt P00698)

specific activity with tyrosine phosphorylated RCM-Lysozyme as substrate (fold lower than the wild type enzyme): 10000
Substance: full length PTP-PEST D199A (from UniProt Q05209) (enzyme)
